Substitutions are numbered along the chain they refer to. Read-outs that look alike come from different tables or passages of the source. Each block holds one binder with its values, some of them ahead of it.
How the values were obtained:
Human-GPC3-His [1] = target: T1, Human-GPC3-His (human, UniProt P51654 25-559, limits assumed); test: ELISA: Human-GPC3-His coated at 0.5 µg/mL, antibody titrated 3-fold from 10 µg/mL, HRP goat anti-human IgG-Fc, OD450-OD570
T1 construct: Coated on the ELISA plate; also called GPC-3 protein; GPC3 protein; not shown: His tag
Description: (§1) Human-GPC3-His was diluted to 0.5 μg/mL with PBS buffer at pH 7.4, added into the 96-well ELISA plate at 100 μL per well, coated overnight at 4° C., and blocked with 1% BSA blocking solution for 1 hour. The plate was washed 3 times with PBST, and the constructed antibody was diluted to 10 μg/mL with 0.5% BSA sample diluent as the starting concentration, and then diluted by 3-fold gradient (11 gradients in total) and incubated at 37° C. for 1 h at 100 μL per well. The plate was washed 3 times with PBST, and then HRP-labelled goat anti-human IgG-Fc was diluted with the sample diluent at 1:20000. 100 μL was added into each well, and incubated at room temperature for 1 hour. A negative control (blank well and IgG1 isotype control) and a positive control were set, and the positive control was a GPC-3 and CD3 bispecial antibody from the literature Hs, A, et al. “Engineering a bispecific antibody with a common light chain: Identification and optimization of an anti-CD3 epsilon and anti-GPC3 bispecific antibody, ERY974.” Methods 154 (2019): 10-20. (The GPC-3 and CD3 bispecial antibody sequence consists of SEQ ID No. 22, SEQ ID No. 23, and SEQ ID No. 24). The plate was washed 4 times with PBST, and 100 μL of TMB substrate was added into each well, and incubated at room temperature without light for 10 minutes. 100 μL of 1 M HCl solution was added into each well to terminate the color development reaction. The absorbance value of each well in the 96-well plate was determined by selecting the wavelength of 450 nm and the reference wavelength of 570 nm on a multifunctional enzyme marker, and the absorbance value (OD)=OD₄₅₀ₙₘ−OD₅₇₀ₙₘ. The logarithm of the concentration of the constructed antibody was taken as the abscissa, and the measured absorbance value of each well was taken as the ordinate, and the Sigmoidaldose-response (Variable Slope) method (GraphPad Prism software, GraphPad Software, San Diego, California) was selected for nonlinear regression to obtain the binding curve of the target antibody to the GPC-3 protein.

Human-GPC3-His [2] = target: T1, Human-GPC3-His; test: as above; remark: listed apart in the source
Description: as §1

Human-GPC3-His [3] = target: T1, Human-GPC3-His; test: as above; remark: listed apart in the source
Description: as §1

[4] = target: T2, Human-NKP30-His (Kactus, cat: NKP-HM430) (human, UniProt O14931 19-138, limits assumed); test: ELISA: Human-NKP30-His coated, antibody titrated 3-fold from 10 µg/mL, HRP goat anti-human IgG-Fc, OD450-OD570
T2 construct: also called NKP30 protein; NKP30-his protein; not shown: His tag
T2 sequence (looked up): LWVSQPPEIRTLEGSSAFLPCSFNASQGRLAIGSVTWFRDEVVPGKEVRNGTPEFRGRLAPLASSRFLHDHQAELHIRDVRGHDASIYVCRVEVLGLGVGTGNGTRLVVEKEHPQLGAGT
Description: Human-NKP30-His (Kactus, cat: NKP-HM430) was diluted to […] with PBS buffer at pH 7.4, added into the 96-well ELISA plate at 100 μL per well, coated overnight at 4° C., and blocked with 1% BSA blocking solution for 1 hour. The plate was washed 3 times with PBST, and the constructed antibodies were diluted to 10 μg/mL with 0.5% BSA sample diluent as the starting concentration, and then diluted by 3-fold gradient (11 gradients in total). A negative control (blank well and IgG1 isotype control) and a positive control were set, and the positive control was a NKP30 humanized antibody (sequence shown in SEQ ID No. 28), and incubated at 37° C. for 1 h at 100 μL per well. The plate was washed 3 times with PBST, and then HRP-labelled goat anti-human IgG-Fc was diluted with the sample diluent at 1:20000. 100 μL was added into each well, and incubated at room temperature for 1 hour. The plate was washed 4 times with PBST, and 100 μL of TMB substrate was added into each well, and incubated at room temperature without light for 10 minutes. 100 μL of 1 M HCl solution was added into each well to terminate the color development reaction. The absorbance value of each well in the 96-well plate was determined by selecting the wavelength of 450 nm and the reference wavelength of 570 nm on a multifunctional enzyme marker, and the absorbance value (OD)=OD₄₅₀ₙₘ−OD₅₇₀ₙₘ. The logarithm of the concentration of the constructed antibody was taken as the abscissa, and the measured absorbance value of each well was taken as the ordinate, and the Sigmoidaldose-response (Variable Slope) method (GraphPad Prism software, GraphPad Software, San Diego, California) was selected for nonlinear regression to obtain the binding curve of the target antibody to NKP30.

T1 sequence (P51654 25-559 limits assumed): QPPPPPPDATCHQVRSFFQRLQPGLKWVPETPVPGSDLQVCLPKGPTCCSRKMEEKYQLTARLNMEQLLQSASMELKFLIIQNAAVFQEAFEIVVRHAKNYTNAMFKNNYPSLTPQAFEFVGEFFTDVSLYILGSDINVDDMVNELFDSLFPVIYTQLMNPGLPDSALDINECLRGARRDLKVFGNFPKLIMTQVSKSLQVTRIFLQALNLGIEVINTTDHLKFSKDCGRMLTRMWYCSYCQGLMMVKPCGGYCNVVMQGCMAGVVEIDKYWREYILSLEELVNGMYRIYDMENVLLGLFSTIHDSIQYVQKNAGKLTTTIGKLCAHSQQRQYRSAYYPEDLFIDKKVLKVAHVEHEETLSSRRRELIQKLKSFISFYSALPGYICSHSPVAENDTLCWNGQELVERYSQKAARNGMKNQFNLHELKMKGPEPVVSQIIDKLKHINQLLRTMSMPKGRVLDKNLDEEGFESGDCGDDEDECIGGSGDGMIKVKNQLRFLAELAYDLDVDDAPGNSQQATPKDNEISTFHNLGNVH

EC50 (read off the curve) (Human-GPC3-His [1]): ~0.03 µg/mL
EC50 (read off the curve) (Human-GPC3-His [2]): ~0.01 µg/mL
EC50 (read off the curve) (Human-GPC3-His [3]): ~0.03 µg/mL
B1: GPC-3 and CD3 bispecial antibody (ERY974) (bispecific antibody, human IgG4 S228P, kappa, N297A)
chain 1: QVQLVQSGAEVKKPGASVTVSCKASGYTFTDYEMHWIRQPPGEGLEWIGAIDGPTPDTAYSEKFKGRVTLTADKSTSTAYMELSSLTSEDTAVYYCTRFYSYTYWGQGTLVTVSSASTKGPSVFPLAPCSRSTSESTAALGCLVKDYFPEPVTVSWNSGALTSGVHTFPAVLQSSGLYSLSSVVTVPSSSLGTQTYTCNVDHKPSNTKVDKRVESKYGPPCPPCPAPEFRGGPKVFLFPPKPKDTLMISRTPEVTCVVVDVSQEDPEVQFNWYVDGVEVHNAKTKPREEQFASTYRVVSVLTVLHQDWLNGKEYKCKVSNKGLPSSIEKTISKAKGQPREPQVYTLPPSQEEMTKNQVSLTCLVKGFYPSDIAVEWESNGQPENNYKTTPPVLDSDGSFFLYSKLTVDKSRWQEGNVFSCSVMHEALHNHYTQESLSLSP
chain 2: QVQLVESGGGVVQPGGSLRLSCAASGFTFSNAWMHWVRQAPGKGLEWVAQIKDKSQNYATYVAESVKGRFTISRADSKNSIYLQMNSLKTEDTAVYYCRYVHYAAGYGVDIWGQGTTVTVSSASTKGPSVFPLAPCSRSTSESTAALGCLVKDYFPEPVTVSWNSGALTSGVHTFPAVLQSSGLYSLSSVVTVPSSSLGTKTYTCNVDHKPSNTKVDKRVESKYGPPCPPCPAPEFRGGPKVFLFPPKPKDTLMISRTPEVTCVVVDVSQEDPEVQFNWYVDGVEVHNAKTKPREEQFASTYRVVSSLTVLHQDWLNGKEYKCKVSNKGLPSSIEKTISKAKGQPREPQVYTLPPSQKEMTKNQVSLTCLVKGFYPSDIAVEWESNGQPENNYKTTPPVLDSSGSFFLYSKLTVDKSRWQEGNVFSCSVMHEALHNHYTQKSLSLSP
chain 3: DIVMTQSPLSLPVTPGEPASISCRSSQPLVHSNRNTYLHWYQQKPGQAPRLLIYKVSNRFSGVPDRFSGSGSGTDFTLKISRVEAEDVGVYYCGQGTQVPYTFGQGTKLEIKRTVAAPSVFIFPPSDEQLKSGTASVVCLLNNFYPREAKVQWKVDNALQSGNSQESVTEQDSKDSTYSLSSTLTLSKADYEKHKVYACEVTHQGLSSPVTKSFNRGEC
notes: also called anti-CD3 epsilon and anti-GPC3 bispecific antibody

EC50 (read off the curve) [4]: ~0.03 µg/mL
EC50 (read off the curve) (Human-GPC3-His [2]): ~0.01 µg/mL
B2: GN15-G (bispecific antibody, human IgG1, kappa)
light 1: QVQLVQSGAEVKKPGASVKVSCKASGYTFTDYEMHWVRQAPGQGLEWMGALDPKTGDTAYSQKFKGRVTLTADKSTSTAYMELSSLTSEDTAVYYCTRFYSYTYWGQGTLVTVSSRTVAAPSVFIFPPSDEQLKSGTASVVCLLNNFYPREAKVQWKVDNALQSGNSQESVTEQDSKDSTYSLSSTLTLSKADYEKHKVYACEVTHQGLSSPVTKSFNRGECGGGGSGGGGSGGGGSGGGGSEVQLVESGGGLVQPGGSLRLSCAASGITFSRSVMGWFRQAPGKLRELVAGITSDDNTDYADSVKGRFTISRDNSKNTLYLQMNSLRAEDTAVYYCNILPDSRLGWGQGTLVTVSS
heavy 1: not shown
heavy 2: QVQLVQSGAEVKKPGASVKVSCKASGYTFTDYEMHWVRQAPGQGLEWMGALDPKTGDTAYSQKFKGRVTLTADKSTSTAYMELSSLTSEDTAVYYCTRFYSYTYWGQGTLVTVSSASTKGPSVFPLAPSSKSTSGGTAALGCLVKDYFPEPVTVSWNSGALTSGVHTFPAVLQSSGLYSLSSVVTVPSSSLGTQTYICNVNHKPSNTKVDKKVEPKSCDKTHTCPPCPGGGGSGGGGSPALLLLLLLRPPATRGITCPPPMSVEHADIWVKSYSLYSRERYICNSGFKRKAGTSSLTECVLNKATNVAHWTTPSLKCIRDPALVHQRPAPPSTVTTAGVTPQPESLSPSGKEGGGGSGGGGSAPELLGGPSVFLFPPKPKDTLMISRTPEVTCVVVDVSHEDPEVKFNWYVDGVEVHNAKTKPREEQYNSTYRVVSVLTVLHQDWLNGKEYKCKVSNKALPAPIEKTISKAKGQPREPQVYTLPPSRDELTKNQVSLTCLVKGFYPSDIAVEWESNGQPENNYKTTPPVLDSDGSFFLASKLTVDKSRWQQGNVFSCSVMHEALHNHYTQKSLSLSPGK
light 2: B1 chain 3 with I2V, P28S, Q42L, A48S, R50Q, G94S, G96N, Q98H, Y101P
notes: Trifunctional antibody against GPC-3 and NKP30 with IL-15 and IL-15Rα sushi between CH1 and CH2; also called constructed antibody GN15-G; multifunctional antibody

EC50 (read off the curve) (Human-GPC3-His [1]): ~0.02 µg/mL
EC50 (read off the curve) [4]: ~0.03 µg/mL
B3: GN15-F (bispecific antibody, human IgG1, kappa)
light: B1 chain 3 with I2V, P28S, Q42L, A48S, R50Q, G94S, G96N, Q98H, Y101P
heavy 1: not shown
heavy 2: B2 heavy 2
notes: Trifunctional antibody against GPC-3 and NKP30 with IL-15 and IL-15Rα sushi between CH1 and CH2; also called constructed antibody GN15-F; multifunctional antibody

Reference: patent US20240218065A1 (SHENGHE CHINA BIOPHARMACEUTICAL, published 2024)
